Results as given in patent US20200317768A1 (published 2020).

T1: cynomolgus monkey FcγRIIa1 extracellular domain, C-terminal His-tag (cynomolgus monkey)
T1 construct: also called cyno FcγRIIa1; FcgRIIa1; not shown: His-tag added to the C-terminus
T1 chain: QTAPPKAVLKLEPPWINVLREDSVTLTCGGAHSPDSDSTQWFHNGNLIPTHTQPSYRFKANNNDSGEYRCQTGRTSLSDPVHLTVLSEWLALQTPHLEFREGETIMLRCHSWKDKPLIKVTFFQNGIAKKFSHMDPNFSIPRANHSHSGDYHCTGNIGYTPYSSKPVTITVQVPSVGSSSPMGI


Key:
[1] = target: T1, cynomolgus monkey FcγRIIa1 …; experiment: SPR (BIACORE), antibody captured, soluble FcgR as analyte, 25C
Method: (§1) The kinetic analysis of interactions between these antibodies and FcγR was carried out using BIACORE® T200 or BIACORE® 4000 (GE Healthcare). HBS-EP+ (GE Healthcare) was used as the running buffer, and the measurement temperature was set to 25° C. A chip produced by immobilizing Protein A. Protein A/G or mouse anti-human IgG kappa light chain (BD Biosciences) onto a Series S Sensor Chip CM4 or CM5 (GE Healthcare) by the amine-coupling method was used. […] After the measurement, the antibody captured on the chip was washed off by allowing reaction with 10 mM glycine-HCl, pH1.5 and 25 mM NaOH so that the chip was regenerated and used repeatedly. The sensorgrams obtained as measurement results were analyzed by the 1:1 Langmuir binding model using the BIACORE® Evaluation Software to calculate the binding rate constant ka (L/mol/s) and dissociation rate constant kd (l/s), and the dissociation constant KD (mol/L) was calculated from these values. […] Regarding such interactions, KD values were calculated using the following 1:1 binding model described in BIACORE® T100 Software Handbook BR1006-48 Edition AE.
(§2) The behavior of interacting molecules according to the 1:1 binding model on BIACORE® can be described by Equation 1: Req=C·R max/(KD+C)+RI, wherein, Req is a plot of steady-state binding levels to analyte concentration. C is concentration, RI is bulk refractive index contribution in the sample, and Rmax is analyte binding capacity of the surface. When this equation is rearranged, KD can be expressed as Equation 2: KD=C·Rmax/(Req−RI)−C. KD can be calculated by substituting the values of Rmax, RI, and C into Equation 1 or Equation 2. From the current measurement conditions, RI=0, C=2 μmol/L can be used.

[2] = target: T2, cynomolgus monkey FcγRIIIaS extracellular domain, C-terminal His-tag (cynomolgus monkey, UniProt A3RFZ7 21-206 (rhesus entry)); experiment: as above
T2 construct: also called cyno FcγRIIIaS; FcgRIIIaS; not shown: His-tag added to the C-terminus
Method: as §1, §2

T2 sequence (A3RFZ7 21-206): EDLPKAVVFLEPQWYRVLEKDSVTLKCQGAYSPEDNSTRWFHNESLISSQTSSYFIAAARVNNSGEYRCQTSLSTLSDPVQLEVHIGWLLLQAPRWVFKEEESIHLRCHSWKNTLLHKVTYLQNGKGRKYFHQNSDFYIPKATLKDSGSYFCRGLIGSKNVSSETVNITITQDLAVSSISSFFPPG

| Binder | Kd [1] [nM] | Kd [2] [µM] |
| --- | --- | --- |
| MS1032LO06-SG1 (M103205H795-SG1/M103202L889-SK1) (antibody, human IgG1, kappa, Anti-latent myostatin antibody) heavy: not shown light: DIVMTQSPATLSLSPGERATLSCTSSQSVYHANWLSWFQQKPGQPPKLLIYWASTLAYGVPSRFSGSGSGTDFTLTISSLQPEDAATYYCAGGYGGGRYAFGQGTKVEIKRTVAAPSVFIFPPSDEQLKSGTASVVCLLNNFYPREAKVQWKVDNALQSGNSQESVTEQDSKDSTYSLSSTLTLSKADYEKHKVYACEVTHQGLSSPVTKSFNRGEC | 4800 | 0.28 |
| MS1032LO06-MY351 (M103205H795-MY351/M103202L889-SK1) (antibody, human IgG1, kappa, CH MY351 = SG1 with G236N/H268D/Q311R/A330K/D413K (EU numbering); also called MS103205H795-MY351) heavy: QVTLKESGPVLVKPTETLTLTCTVSGIDLSHDDISWVRQAPGKGLEWVGIISYAGSTYYASWAKGRLTISKDTSKNQVVLTMTNMDPVDTATYYCARGVPAYSHGGDLWGQGTLVTVSSASTKGPSVFPLAPSSKSTSGGTAALGCLVKDYFPEPVTVSWNSGALTSGVHTFPAVLQSSGLYSLSSVVTVPSSSLGTQTYICNVNHKPSNTKVDKKVEPKSCDKTHTCPPCPAPELLNGPSVFLFPPKPKDTLMISRTPEVTCVVVDVSDEDPEVKFNWYVDGVEVHNAKTKPREEQYNSTYRVVSVLTVLHRDWLNGKEYKCKVSNKALPKPIEKTISKAKGQPREPQVYTLPPSREEMTKNQVSLTCLVKGFYPSDIAVEWESNGQPENNYKTTPPVLDSDGSFFLYSKLTVKKSRWQQGNVFSCSVMHEALHNHYTQKSLSLSP light: DIVMTQSPATLSLSPGERATLSCTSSQSVYHANWLSWFQQKPGQPPKLLIYWASTLAYGVPSRFSGSGSGTDFTLTISSLQPEDAATYYCAGGYGGGRYAFGQGTKVEIKRTVAAPSVFIFPPSDEQLKSGTASVVCLLNNFYPREAKVQWKVDNALQSGNSQESVTEQDSKDSTYSLSSTLTLSKADYEKHKVYACEVTHQGLSSPVTKSFNRGEC | 1600 | 4.1 |
| MS1032LO06-MY201 (M103205H795-MY201/M103202L889-SK1) (antibody, human IgG1, kappa, CH MY201 = SG1 with G236N/H268D/A330K (EU numbering); also called MS103205H795-MY201) heavy: QVTLKESGPVLVKPTETLTLTCTVSGIDLSHDDISWVRQAPGKGLEWVGIISYAGSTYYASWAKGRLTISKDTSKNQVVLTMTNMDPVDTATYYCARGVPAYSHGGDLWGQGTLVTVSSASTKGPSVFPLAPSSKSTSGGTAALGCLVKDYFPEPVTVSWNSGALTSGVHTFPAVLQSSGLYSLSSVVTVPSSSLGTQTYICNVNHKPSNTKVDKKVEPKSCDKTHTCPPCPAPELLNGPSVFLFPPKPKDTLMISRTPEVTCVVVDVSDEDPEVKFNWYVDGVEVHNAKTKPREEQYNSTYRVVSVLTVLHQDWLNGKEYKCKVSNKALPKPIEKTISKAKGQPREPQVYTLPPSREEMTKNQVSLTCLVKGFYPSDIAVEWESNGQPENNYKTTPPVLDSDGSFFLYSKLTVDKSRWQQGNVFSCSVMHEALHNHYTQKSLSLSP light: DIVMTQSPATLSLSPGERATLSCTSSQSVYHANWLSWFQQKPGQPPKLLIYWASTLAYGVPSRFSGSGSGTDFTLTISSLQPEDAATYYCAGGYGGGRYAFGQGTKVEIKRTVAAPSVFIFPPSDEQLKSGTASVVCLLNNFYPREAKVQWKVDNALQSGNSQESVTEQDSKDSTYSLSSTLTLSKADYEKHKVYACEVTHQGLSSPVTKSFNRGEC | 1500 | 3.7 |
| MS1032LO06-MY352 (M103205H795-MY352/M103202L889-SK1) (antibody, human IgG1, kappa, name in EU numbering, Printed substitutions: G236N/H268D/Q311R/A330K/D413R (EU numbering); also called MS103205H795-MY352) heavy: QVTLKESGPVLVKPTETLTLTCTVSGIDLSHDDISWVRQAPGKGLEWVGIISYAGSTYYASWAKGRLTISKDTSKNQVVLTMTNMDPVDTATYYCARGVPAYSHGGDLWGQGTLVTVSSASTKGPSVFPLAPSSKSTSGGTAALGCLVKDYFPEPVTVSWNSGALTSGVHTFPAVLQSSGLYSLSSVVTVPSSSLGTQTYICNVNHKPSNTKVDKKVEPKSCDKTHTCPPCPAPELLNGPSVFLFPPKPKDTLMISRTPEVTCVVVDVSDEDPEVKFNWYVDGVEVHNAKTKPREEQYNSTYRVVSVLTVLHRDWLNGKEYKCKVSNKALPKPIEKTISKAKGQPREPQVYTLPPSREEMTKNQVSLTCLVKGFYPSDIAVEWESNGQPENNYKTTPPVLDSDGSFFLYSKLTVRKSRWQQGNVFSCSVMHEALHNHYTQKSLSLSP light: DIVMTQSPATLSLSPGERATLSCTSSQSVYHANWLSWFQQKPGQPPKLLIYWASTLAYGVPSRFSGSGSGTDFTLTISSLQPEDAATYYCAGGYGGGRYAFGQGTKVEIKRTVAAPSVFIFPPSDEQLKSGTASVVCLLNNFYPREAKVQWKVDNALQSGNSQESVTEQDSKDSTYSLSSTLTLSKADYEKHKVYACEVTHQGLSSPVTKSFNRGEC | 1700 | 4 |

Continued, values first:

| Kd [1] [nM] | Kd [2] [µM] | Binder |
| --- | --- | --- |
| 1400 | 3.3 | MS1032LO06-PK55 (M103205H795-PK55/M103202L889-SK1) (antibody, human IgG1, kappa, CH PK55 = SG1 with G236N/H268D/Q311R/A330K/P343R (EU numbering); also called MS103205H795-PK55) heavy: QVTLKESGPVLVKPTETLTLTCTVSGIDLSHDDISWVRQAPGKGLEWVGIISYAGSTYYASWAKGRLTISKDTSKNQVVLTMTNMDPVDTATYYCARGVPAYSHGGDLWGQGTLVTVSSASTKGPSVFPLAPSSKSTSGGTAALGCLVKDYFPEPVTVSWNSGALTSGVHTFPAVLQSSGLYSLSSVVTVPSSSLGTQTYICNVNHKPSNTKVDKKVEPKSCDKTHTCPPCPAPELLNGPSVFLFPPKPKDTLMISRTPEVTCVVVDVSDEDPEVKFNWYVDGVEVHNAKTKPREEQYNSTYRVVSVLTVLHRDWLNGKEYKCKVSNKALPKPIEKTISKAKGQRREPQVYTLPPSREEMTKNQVSLTCLVKGFYPSDIAVEWESNGQPENNYKTTPPVLDSDGSFFLYSKLTVDKSRWQQGNVFSCSVMHEALHNHYTQKSLSLSP light: DIVMTQSPATLSLSPGERATLSCTSSQSVYHANWLSWFQQKPGQPPKLLIYWASTLAYGVPSRFSGSGSGTDFTLTISSLQPEDAATYYCAGGYGGGRYAFGQGTKVEIKRTVAAPSVFIFPPSDEQLKSGTASVVCLLNNFYPREAKVQWKVDNALQSGNSQESVTEQDSKDSTYSLSSTLTLSKADYEKHKVYACEVTHQGLSSPVTKSFNRGEC |
| 1900 | 4.3 | MS1032LO06-PK57 (M103205H795-PK57/M103202L889-SK1) (antibody, human IgG1, kappa, CH PK57 = SG1 with G236N/H268D/Q311R/A330K/N384R/D413R (EU numbering); also called MS103205H795-PK57) heavy: QVTLKESGPVLVKPTETLTLTCTVSGIDLSHDDISWVRQAPGKGLEWVGIISYAGSTYYASWAKGRLTISKDTSKNQVVLTMTNMDPVDTATYYCARGVPAYSHGGDLWGQGTLVTVSSASTKGPSVFPLAPSSKSTSGGTAALGCLVKDYFPEPVTVSWNSGALTSGVHTFPAVLQSSGLYSLSSVVTVPSSSLGTQTYICNVNHKPSNTKVDKKVEPKSCDKTHTCPPCPAPELLNGPSVFLFPPKPKDTLMISRTPEVTCVVVDVSDEDPEVKFNWYVDGVEVHNAKTKPREEQYNSTYRVVSVLTVLHRDWLNGKEYKCKVSNKALPKPIEKTISKAKGQPREPQVYTLPPSREEMTKNQVSLTCLVKGFYPSDIAVEWESRGQPENNYKTTPPVLDSDGSFFLYSKLTVRKSRWQQGNVFSCSVMHEALHNHYTQKSLSLSP light: DIVMTQSPATLSLSPGERATLSCTSSQSVYHANWLSWFQQKPGQPPKLLIYWASTLAYGVPSRFSGSGSGTDFTLTISSLQPEDAATYYCAGGYGGGRYAFGQGTKVEIKRTVAAPSVFIFPPSDEQLKSGTASVVCLLNNFYPREAKVQWKVDNALQSGNSQESVTEQDSKDSTYSLSSTLTLSKADYEKHKVYACEVTHQGLSSPVTKSFNRGEC |
| 1800 | 4.4 | MS1032LO06-PK56 (M103205H795-PK56/M103202L889-SK1) (antibody, human IgG1, kappa, CH PK56 = SG1 with G236N/H268D/Q311R/A330K/P343R/D413R (EU numbering); also called MS103205H795-PK56) heavy: QVTLKESGPVLVKPTETLTLTCTVSGIDLSHDDISWVRQAPGKGLEWVGIISYAGSTYYASWAKGRLTISKDTSKNQVVLTMTNMDPVDTATYYCARGVPAYSHGGDLWGQGTLVTVSSASTKGPSVFPLAPSSKSTSGGTAALGCLVKDYFPEPVTVSWNSGALTSGVHTFPAVLQSSGLYSLSSVVTVPSSSLGTQTYICNVNHKPSNTKVDKKVEPKSCDKTHTCPPCPAPELLNGPSVFLFPPKPKDTLMISRTPEVTCVVVDVSDEDPEVKFNWYVDGVEVHNAKTKPREEQYNSTYRVVSVLTVLHRDWLNGKEYKCKVSNKALPKPIEKTISKAKGQRREPQVYTLPPSREEMTKNQVSLTCLVKGFYPSDIAVEWESNGQPENNYKTTPPVLDSDGSFFLYSKLTVRKSRWQQGNVFSCSVMHEALHNHYTQKSLSLSP light: DIVMTQSPATLSLSPGERATLSCTSSQSVYHANWLSWFQQKPGQPPKLLIYWASTLAYGVPSRFSGSGSGTDFTLTISSLQPEDAATYYCAGGYGGGRYAFGQGTKVEIKRTVAAPSVFIFPPSDEQLKSGTASVVCLLNNFYPREAKVQWKVDNALQSGNSQESVTEQDSKDSTYSLSSTLTLSKADYEKHKVYACEVTHQGLSSPVTKSFNRGEC |
